In test [1] the target is T1, PKA (Homo sapiens, UniProt P17612).
T1 construct: pure catalytic subunit of PKA from rabbit muscle; from tissue
As to the kind of experiment: Inhibition of vitronectin phosphorylation by PKA in the presence of competing peptide. It is filed as biochemical. To be noted: for inhibition of the phosphorylation of vitronectin by PKA (in words): competitive. The source says:
Peptides containing the sequence Arg-Arg-Pro-X-Arg (X=Ser, Thr, Ala, Cys, Tyr) inhibit the phosphorylation of vitronectin by PKA.
FIG. 5 Inhibition of vitronectin phosphorylation by PKA in the presence of the indicated concentrations of a peptide identical in sequence to the site phosphorylated in vitronectin.

Test [2] deals with vitronectin phosphorylation by PKA. As to the kind of experiment: Phosphorylation of vitronectin at various pH in the presence or absence of heparin. It is filed as biochemical. To be noted: 3-fold molar excess of heparin over vitronectin (2.7 μM); FIG. 6. The method, then:
The phosphorylation of vitronectin (p75 and mainly the p65 form) is affected by pH and by the presence of heparin in the reaction mixture (FIG. 6).
FIG. 6 Vitronectin (2.7 μM was incubated for 2 h at 22° C. with C (1 μg/ml) in the presence of Mg(CH3 COO)2 (10 mM), [γ^32 ]ATP 50 μM, 0.5 Ci/mmol), (50 Mes at the indicated pH), and a 3-fold molar excess of heparin over vitronectin (where indicated). The reaction was terminated by boiling in Laemli's sample buffer and the extent of phosphorylation was analyzed by polyacrylamide gel electrophoresis and autoradiography.

Ends that are not written are not given here.

For “-Arg-Arg-Pro-Ser-Arg- (RRPSR; printed: Arg-Arg-Pro-Ser-Arg-)”, the “inhibition of the phosphorylation of vitronectin by PKA (in words)” value in test [1] is on record as “competitively inhibit”.
Turning to SRRPSRAT, in test [1] (FIG. 5, peptide competes as alternative substrate, read-out: Ki concentration for inhibition of the phosphorylation of vitronectin by PKA), the Ki came to 30 µM. Also, the “inhibition of the phosphorylation of vitronectin by PKA (in words)” value in test [1] is “compete with (inhibit)”.
heparin: in test [2], the “effect on the amount of phosphorylation of vitronectin” value is given as “increase”.

These data come from US5215888A, “Kit for assaying the cellular integrity of blood platelets” (Yeda Research and Development Co. Ltd., priority 1988, dated 1993).
